Positions count from the first letter of the chain named. Numbers in names are those of the source. Read-outs that look alike come from different tables or passages of the source.
B1: 18D5 (antibody, V domains shown)
VH: QVQLQQPGAELVRPGSSVKLSCKASGYTFTSYWVHWVKQRPIQGLEWIGNIDPSDSDTHYNQKFKDKASLTVDKSSSTAYMQLSSLTFEDSAVYYCVRGGTGTMAWFAYWGQGTLVTVSA
VL: DVVMTQTPLSLPVSLGDQASISCRSSQSLVHSYGNTYLYWYLQKPGQSPKLLIYRVSNRFSGVPDRFSGSGSGTDFTLKISRVEAEDLGVYFCFQGTHVPYTFGSGTKLEIK
notes: from WO2017/178653; also called clone 18D5
B2: hSIRPα.50A.H3L3 (antibody, human IgG4 S228P, kappa, V domains shown)
VH: EVQLVQSGAEVVKPGASVMISCKASGFTFTNYYIHWVRQRPGQGLEWIGWIYPGNVNTKYNEKFKARVIMTADKSTSTVYMQLSSLTSEDTAVYYCARPTIIATDFDVWGQGTLVTVSS
VL: ELVMTQSPSSLSASVGDRVTITCKASQGVGTAVGWYQQKPGKAPKLLIYWASTRHTGVPDRFSGSGSGTDFTLAISSLQPEDIADYYCQQYSTYPFTFGGGTKVEIKR
notes: human IgG4 S228P, kappa; also called hSIRPα.50H3L3
B3: hSIRPα.50A.H3L5 (antibody, human IgG4 S228P, kappa, V domains shown)
VH: B2 VH
VL: DIVLTQSPSFLSASVGDRVTITCKASQGVGTAVGWYQQKPGKSPKLLIYWASTRHTGVPDRFSGSGSGTEFTLTISNLQPEDFAAYYCQQYSTYPFTFGGGTKLEIKR
notes: human IgG4 S228P, kappa; also called hSIRPα.50H3L5
B4: hSIRPα.50A.H4L1 (antibody, human IgG4 S228P, kappa, V domains shown)
VH: EVQLQQSGAELVKPGASVKVSCKASGFTFTNYYIHWVRQRPGQGLEWMGWIYPGNVNTKYNEKFKAKATITADKSTSTAYMELSSLTSEDTAVYYCARPTIIATDFDVWGQGTTVTVSS
VL: B3 VL with S43A, N77S
notes: human IgG4 S228P, kappa; also called hSIRPα.50H4L1
B5: hSIRPα.50A.H3L4 (antibody, human IgG4 S228P, kappa, V domains shown)
VH: B2 VH
VL: B3 VL with V3Q, L4M, F10S, Q38K, S43V, E70D, S76N, N77G, F83V, A85T
notes: human IgG4 S228P, kappa; also called hSIRPα.50H3L4
B6: hSIRPα.50A.H4L4 (antibody, human IgG4 S228P, kappa, V domains shown)
VH: B4 VH
VL: B3 VL with V3Q, L4M, F10S, Q38K, S43V, E70D, S76N, N77G, F83V, A85T
notes: human IgG4 S228P, kappa; also called hSIRPα.50H4L4
B7: hSIRPα.50A.H4L5 (antibody, human IgG4 S228P, kappa, V domains shown)
VH: B4 VH
VL: B3 VL
notes: human IgG4 S228P, kappa; also called hSIRPα.50H4L5
B8: hSIRPα.50A.H5L4 (antibody, human IgG4 S228P, kappa, V domains shown)
VH: EVQLVQSGAEVVKPGASVKVSCKASGFTFTNYYIHWVRQAPEQGLEWIGWIYPGNVNTKYNEKFKARVTMTADKSTSTAYMELSSLRSDDMAVYYCARPTIIATDFDVWGQGTTVTVSS
VL: B3 VL with V3Q, L4M, F10S, Q38K, S43V, E70D, S76N, N77G, F83V, A85T
notes: human IgG4 S228P, kappa; also called hSIRPα.50H5L4

Tests used:
human SIRPβ1 [1] = biological target: T1, human SIRPβ1 (human, UniProt O00241 30-398); test: CELISA, CHO-K1 transfectants
T1 construct: also called hSIRPβ1
T1 sequence (O00241 30-398 limits assumed): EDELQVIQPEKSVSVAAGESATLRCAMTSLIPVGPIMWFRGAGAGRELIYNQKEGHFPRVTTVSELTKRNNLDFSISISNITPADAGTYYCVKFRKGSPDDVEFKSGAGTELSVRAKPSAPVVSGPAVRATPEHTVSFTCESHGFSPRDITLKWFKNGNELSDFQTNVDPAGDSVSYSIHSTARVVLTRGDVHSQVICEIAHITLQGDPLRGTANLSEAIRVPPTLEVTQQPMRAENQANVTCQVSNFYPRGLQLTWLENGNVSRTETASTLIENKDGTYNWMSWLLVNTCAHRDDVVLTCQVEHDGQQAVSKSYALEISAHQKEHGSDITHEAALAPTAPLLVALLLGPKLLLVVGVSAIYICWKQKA
Description: (§1) Reactivity was confirmed using CHO-K1 cells (ATCC CCL-61) expressing a cDNA encoding the full length open reading frame of hSIRPαV1, hSIRPαV1(P74A), hSIRPαV2, and hSIRPβ1 subcloned into the pCI-neo vector (Promega, Madison, Wis.). CHO-K1.hSIRPαV1, CHO-K1.hSIRPαV1(P74A), CHO-K1.hSIRPαV2, and CHO-K1.hSIRPβ1 cells were seeded in culture medium (DMEM-F12 (Gibco) supplemented with 5% New Born Calf Serum (BioWest) and Pen/Strep (Gibco)) in 96-well flat-bottom tissue culture plates and incubated at 37° C., 5% CO₂ and 95% humidity for 24 hours. Subsequently, culture medium was removed and cells were incubated for 1 hour at 37° C., 5% CO₂ and 95% humidity with purified hSIRPα antibodies (used at 10 μg/mL and dilutions thereof). Next, cells were washed with PBS-T and incubated for 1 hour at 37° C., 5% CO₂ and 95% humidity with goat-anti-mouse IgG-HRP (Southern Biotech). Subsequently, cells were washed three times with PBS-T and immunoreactivity against hSIRPαV1, hSIRPαV1(P74A), hSIRPαV2, and hSIRPβ1 was visualized with TMB Stabilized Chromogen (Invitrogen). Reactions were stopped with 0.5 M H₂SO₄ and absorbances were read at 450 and 610 nm.

human SIRPα variant 1 [2] = biological target: T2, human SIRPα variant 1 (human, UniProt P78324 31-504); test: CELISA, CHO-K1 transfectants
T2 construct: full length ORF on transfected CHO-K1 or HEK293 cells; entry includes the signal peptide; also called hSIRPαV1; SIRPαV1
T2 sequence (P78324 31-504 limits assumed, change not shown): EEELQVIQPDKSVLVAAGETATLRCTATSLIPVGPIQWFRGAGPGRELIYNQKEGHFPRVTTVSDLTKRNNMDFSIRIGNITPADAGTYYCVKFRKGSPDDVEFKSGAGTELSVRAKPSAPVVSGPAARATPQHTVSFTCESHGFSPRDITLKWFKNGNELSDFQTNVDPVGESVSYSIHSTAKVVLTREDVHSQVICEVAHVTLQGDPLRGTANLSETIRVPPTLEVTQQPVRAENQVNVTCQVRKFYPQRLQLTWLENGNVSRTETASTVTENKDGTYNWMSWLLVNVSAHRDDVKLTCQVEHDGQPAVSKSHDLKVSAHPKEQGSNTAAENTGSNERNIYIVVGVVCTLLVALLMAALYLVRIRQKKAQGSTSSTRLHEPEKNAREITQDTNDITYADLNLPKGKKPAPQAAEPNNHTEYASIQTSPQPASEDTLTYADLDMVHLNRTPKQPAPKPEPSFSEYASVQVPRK
Description: as §1

hSIRPαV1(P74A) [3] = biological target: T3, hSIRPαV1(P74A) (human, UniProt P78324 31-504); test: CELISA, CHO-K1 transfectants
T3 construct: also called P74A variant of hSIRPαV1
T3 sequence (P78324 31-504 P74A limits assumed): as the sequence (P78324 31-504 limits assumed, change not shown) above, with P44A counted along it
Description: as §1

human SIRPγ [4] = biological target: T4, human SIRPγ (human, UniProt Q9P1W8 29-387); test: flow cytometry, Jurkat E6.1 cells; nd = not detected
T4 construct: on transfected CHO-K1 cells; also called hSIRPγ
T4 sequence (Q9P1W8 29-387 limits assumed): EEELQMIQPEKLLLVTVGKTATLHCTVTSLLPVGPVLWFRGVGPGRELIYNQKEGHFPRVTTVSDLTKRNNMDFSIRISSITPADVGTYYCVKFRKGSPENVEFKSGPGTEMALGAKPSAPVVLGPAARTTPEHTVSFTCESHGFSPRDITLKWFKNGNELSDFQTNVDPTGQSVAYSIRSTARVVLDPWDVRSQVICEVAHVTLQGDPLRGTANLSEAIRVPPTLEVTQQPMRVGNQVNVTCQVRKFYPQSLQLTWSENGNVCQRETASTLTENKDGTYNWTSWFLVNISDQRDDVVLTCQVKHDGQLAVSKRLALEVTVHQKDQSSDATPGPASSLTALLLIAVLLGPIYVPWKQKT
Description: Binding to hSIRPγ was assessed by flow cytometry using the Jurkat E6.1 T cell leukemia cell line (ECACC 88042803). Jurkat cells were seeded in 96-well round bottomed tissue culture plates and incubated for 40 minutes with the anti-hSIRPα antibodies (20 μg/mL and dilutions thereof) in PBS/1% BSA at 4° C. […] After this labeling procedure, cells were washed two times, resuspended in PBS/1% BSA, containing 0.1 μg/mL DAPI (BioLegend), and analysed by flow cytometry on the FACSVerse (BD Biosciences). Data were processed and analysed with FlowJo V10 software (FlowJo, LLC).

human SIRPα variant 2 [5] = biological target: T5, human SIRPα variant 2 (human, UniProt P78324 31-504); test: CELISA, CHO-K1 transfectants; nd = not detected
T5 construct: full length ORF on transfected CHO-K1 cells; also called hSIRPαV2; SIRPαV2
T5 sequence (P78324 other isoform, or with tags, fused parts or gaps mutant limits assumed): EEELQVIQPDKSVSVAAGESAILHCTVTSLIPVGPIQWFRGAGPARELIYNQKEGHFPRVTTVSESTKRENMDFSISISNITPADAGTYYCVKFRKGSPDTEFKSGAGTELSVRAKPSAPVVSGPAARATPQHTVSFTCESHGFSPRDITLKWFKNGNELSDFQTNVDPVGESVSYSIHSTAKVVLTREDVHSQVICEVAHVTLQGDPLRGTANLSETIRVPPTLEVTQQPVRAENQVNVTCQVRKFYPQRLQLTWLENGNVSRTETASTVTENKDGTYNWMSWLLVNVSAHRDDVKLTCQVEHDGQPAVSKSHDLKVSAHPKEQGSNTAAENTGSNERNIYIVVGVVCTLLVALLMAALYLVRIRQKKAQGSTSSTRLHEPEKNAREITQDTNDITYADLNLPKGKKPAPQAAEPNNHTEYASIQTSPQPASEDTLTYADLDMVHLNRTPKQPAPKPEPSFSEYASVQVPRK
Description: as §1

human SIRPα variant 1 [6] = biological target: T2, human SIRPα variant 1; test: flow cytometry, blockade of DyLight488-hCD47/Fc binding to U-937 cells
Description: hCD47 blockade for the KWAR23, clone 18D5, and hSIRPα.40A antibodies was assessed by flow cytometry. For this purpose, THP-1 (ATCC TIB-202) and U-937 (ATCC CRL-1593.2) monocyte cell lines were used as the source of hSIRPα in the assay. THP-1 and U-937 cells were seeded in 96-well round bottomed tissue culture plates and incubated for 45 minutes with FcR Blocking Reagent (Miltenyi Biotec) and indicated anti-hSIRPα antibodies (20 μg/mL and dilutions thereof) in PBS/1% BSA at 4° C. […] After this labeling procedure, cells were washed two times, resuspended in PBS/1% BSA containing 0.1 μg/mL DAPI (BioLegend), and analysed by flow cytometry on the FACSVerse (BD Biosciences). Data were processed and analysed with FlowJo V10 software (FlowJo, LLC) and plotted using GraphPad Prism 6 (GraphPad Software, Inc.). Binding of recombinant hCD47 fused to an Fc domain of human IgG1 was monitored in the presence of increasing amounts of the anti-hSIRPα antibodies. […] IC50 values represent the concentration at which half of the inhibition is observed.

human SIRPβ1 [7] = biological target: T1, human SIRPβ1; test: CELISA, CHO-K1 transfectants; remark: listed apart in the source
Description: (§2) The specificity of monoclonal anti-hSIRPα antibodies (e.g., including the hSIRPα antibodies known in the art, KWAR23 ([…]. Patent CA2939293 A1), 18D5 (Patent WO2017/178653 A2), and various commercially available hSIRPα antibodies) for binding to hSIRPαV1, hSIRPαV1(P74A), and hSIRPβ1 was evaluated by CELISA. Reactivity was confirmed using CHO-K1 cells (ATCC CCL-61) expressing a cDNA encoding the full length open reading frame of hSIRPαV1, hSIRPαV1(P74A), and hSIRPβ1 subcloned into the pCI-neo vector (Promega, Madison, Wis.). CHO-K1.hSIRPαV1, CHO-K1.hSIRPαV1(P74A), and CHO-K1.hSIRPβ1 cells were seeded in culture medium (DMEM-F12 (Gibco) supplemented with 5% New Born Calf Serum (BioWest) and Pen/Strep (Gibco)) in 96-well flat-bottom tissue culture plates and incubated at 37° C., 5% CO₂ and 95% humidity for 24 hours. Subsequently, culture medium was removed and cells were incubated for 1 hour at 37° C., 5% CO₂ and 95% humidity with purified hSIRPα antibodies (used at 10 μg/ml and dilutions thereof). Next, cells were washed with PBS-T and incubated for 1 hour at 37° C., 5% CO₂ and 95% humidity with either goat-anti-mouse IgG-HRP (Southern Biotech), goat-anti-human IgG-HRP (Jackson Immuno Research), or goat-anti-rabbit IgG-HRP (Southern Biotech). Subsequently, cells were washed three times with PBS-T and immunoreactivity against hSIRPαV1, hSIRPαV1(P74A), and hSIRPβ1 was visualized with TMB Stabilized Chromogen (Invitrogen). Reactions were stopped with 0.5 M H₂SO₄ and absorbances were read at 450 and 610 nm.

human SIRPα variant 1 [8] = biological target: T2, human SIRPα variant 1; test: CELISA, CHO-K1 transfectants; remark: listed apart in the source
Description: as §2

hSIRPαV1(P74A) [9] = biological target: T3, hSIRPαV1(P74A); test: CELISA, CHO-K1 transfectants; remark: listed apart in the source
Description: as §2

human SIRPα variant 1 [10] = biological target: T2, human SIRPα variant 1; test: CELISA, CHO-K1 transfectants; average of two experiments
Description: (§3) Binding of the humanized antibodies to hSIRPα was studied in CELISA format. Binding of the hSIRPα antibodies to human SIRPαV1, SIRPαV2, hSIRPβ1, and hSIRPγ was confirmed using CHO-K1 cells that had been transiently transfected with cDNA encoding the full length open reading frame of each of these respective targets subcloned into the pCI-neo vector. CHO-K1.hSIRPαV1, CHO-K1.hSIRPαV2, CHO-K1.hSIRPβ1, and CHO-K1.hSIRPγ cells were seeded in culture medium (DMEM-F12 (Gibco) supplemented with 5% New Born Calf Serum (BioWest) and Pen/Strep (Gibco)) in 96-well flat-bottom tissue culture plates and incubated at 37° C., 5% CO₂ and 95% humidity until cell layers were confluent. Subsequently, culture medium was removed and cells were incubated for 1 hour at 37° C., 5% CO₂ and 95% humidity with purified hSIRPα antibodies (10 μg/mL and dilutions thereof). Next, cells were washed with PBS-T and incubated for 1 hour at 37° C., 5% CO₂ and 95% humidity with goat-anti-human IgG-HRP conjugate (Jackson Immuno Research) or goat-anti-mouse IgG-HRP (Southern Biotech). Subsequently, cells were washed three times with PBS-T and anti-hSIRPα immunoreactivity was visualized with TMB Stabilized Chromogen (Invitrogen). Reactions were stopped with 0.5 M H₂SO₄ and absorbances were read at 450 and 610 nm. […] In Table 13 the EC50 values of the humanized hSIRPα antibodies are depicted.
(§4) Table 13: Binding of humanized and parental hSIRPα.50A antibodies to CHO-K1.hSIRPαV1, CHO-K1.hSIRPαV2, CHO-K1.hSIRPβ1, and CHO-K1.hSIRPγ cells.

human SIRPα variant 2 [11] = biological target: T5, human SIRPα variant 2; test: as above
Description: as §3, §4

human SIRPγ [12] = biological target: T4, human SIRPγ; test: CELISA, CHO-K1 transfectants; extrapolated
Description: as §3, §4

human SIRPβ1 [13] = biological target: T1, human SIRPβ1; test: CELISA, CHO-K1 transfectants; nd = not detected
Description: as §3, §4

| Binder | EC50 (human SIRPβ1 [1]) | EC50 (human SIRPα variant 1 [2]) | EC50 (hSIRPαV1(P74A) [3]) | binding result (human SIRPγ [4]) | binding result (human SIRPα variant 2 [5]) | IC50 (human SIRPα variant 1 [6]) | EC50 (human SIRPβ1 [7]) | EC50 (human SIRPα variant 1 [8]) | EC50 (hSIRPαV1(P74A) [9]) | EC50 (human SIRPα variant 1 [10]) | EC50 (human SIRPα variant 2 [11]) | EC50 (human SIRPγ [12]) | binding result (human SIRPβ1 [13]) |
| --- | --- | --- | --- | --- | --- | --- | --- | --- | --- | --- | --- | --- | --- |
| B1 | 0.055 nM | 0.134 nM | 0.055 nM | no binding (tested: 20 µg/mL and dilutions thereof) | no binding (tested: 10 µg/mL and dilutions thereof) | 1.52 nM | 0.064 nM | 0.128 nM | 0.073 nM | – | – | – | – |
| B2 | – | – | – | – | – | – | – | – | – | 1.16 nM | 1.16 nM | 2.47 nM | no binding (tested: 10 µg/mL and dilutions thereof) |
| B3 | – | – | – | – | – | – | – | – | – | 0.878 nM | 0.868 nM | 1.2 nM | no binding (tested: 10 µg/mL and dilutions thereof) |
| B4 | – | – | – | – | – | – | – | – | – | 0.683 nM | 0.681 nM | 0.95 nM | no binding (tested: 10 µg/mL and dilutions thereof) |
| B5 | – | – | – | – | – | – | – | – | – | 1.26 nM | 1.52 nM | 5.17 nM | no binding (tested: 10 µg/mL and dilutions thereof) |
| B6 | – | – | – | – | – | – | – | – | – | 1.2 nM | 1.24 nM | 1.98 nM | no binding (tested: 10 µg/mL and dilutions thereof) |
| B7 | – | – | – | – | – | – | – | – | – | 0.701 nM | 0.661 nM | 0.808 nM | no binding (tested: 10 µg/mL and dilutions thereof) |
| B8 | – | – | – | – | – | – | – | – | – | 1.17 nM | 1.11 nM | 4.03 nM | no binding (tested: 10 µg/mL and dilutions thereof) |

From patent publication US20180312587A1 (ADURO BIOTECH HOLDINGS EUROPE B V, published 2018)
